Assay [1] concerns the target MBP-CHMP4B_(ΔC-Alix) (human). Briefly: SPR. (In general: Surface plasmon resonance follows binding to a sensor surface in real time, without labels.)
Assay [2] addresses MBP-CHMP4B_(ΔC-Alix) (human). Description: SPR. The source holds these as a separate data set.
For assay [3], the target named is CHMP2B-His6 (full length) (human, UniProt Q9UQN3 1-213). Briefly: SPR.
In assay [4] the target is T1, CHMP3 full length (residues 1-222) (human, UniProt Q9Y3E7 1-222).
T1 sequence (looked up): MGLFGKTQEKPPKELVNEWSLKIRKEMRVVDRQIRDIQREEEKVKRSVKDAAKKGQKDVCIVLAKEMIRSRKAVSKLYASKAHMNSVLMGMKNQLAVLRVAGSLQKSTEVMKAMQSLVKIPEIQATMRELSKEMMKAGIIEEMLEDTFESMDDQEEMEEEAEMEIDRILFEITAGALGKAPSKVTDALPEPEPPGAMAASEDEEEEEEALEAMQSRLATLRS
Description: SPR.

Assay [5] deals with T1, CHMP3 full length (residues 1-222). Briefly: cryo-EM structure.

The results in this text go back to publication PMC3783020 (Cellular microbiology, 2012).

Chain of CHMP2B-His6 (full length) (human, UniProt Q9UQN3 1-213) (Q9UQN3 whole entry, the tested form may be a part): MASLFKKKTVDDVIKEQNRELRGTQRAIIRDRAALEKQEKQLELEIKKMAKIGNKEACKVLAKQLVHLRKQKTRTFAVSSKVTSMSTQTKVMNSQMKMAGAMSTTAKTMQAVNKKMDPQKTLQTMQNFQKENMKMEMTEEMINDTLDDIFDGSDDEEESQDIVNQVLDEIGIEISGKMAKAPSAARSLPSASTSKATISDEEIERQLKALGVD

By Kd is commonly meant the equilibrium constant for the complex coming apart. Lower therefore signals higher affinity. For “CHMP2B-His6 (full length) (from UniProt Q9UQN3 1-213) (natural protein)”, the dissociation constant (Kd) in assay [1] amounted to 0.56 µM. This lies in the sub-micromolar range.

B1: CHMP3 full length (residues 1-222) (natural protein)
chain: MGLFGKTQEKPPKELVNEWSLKIRKEMRVVDRQIRDIQREEEKVKRSVKDAAKKGQKDVCIVLAKEMIRSRKAVSKLYASKAHMNSVLMGMKNQLAVLRVAGSLQKSTEVMKAMQSLVKIPEIQATMRELSKEMMKAGIIEEMLEDTFESMDDQEEMEEEAEMEIDRILFEITAGALGKAPSKVTDALPEPEPPGAMAASEDEEEEEEALEAMQSRLATLRS
Take B1: the KD1 (at low concentrations) in assay [2] was 0.15 µM.

B2: CHMP3ΔC (residues 9-183) (domain or fragment, human, UniProt Q9Y3E7 9-183, looked up)
chain: EKPPKELVNEWSLKIRKEMRVVDRQIRDIQREEEKVKRSVKDAAKKGQKDVCIVLAKEMIRSRKAVSKLYASKAHMNSVLMGMKNQLAVLRVAGSLQKSTEVMKAMQSLVKIPEIQATMRELSKEMMKAGIIEEMLEDTFESMDDQEEMEEEAEMEIDRILFEITAGALGKAPSK
Molecule B2 registered a Kd in assay [3] of 1.4 µM.

B3: MBP-CHMP2AΔC (residues 9-161) (domain or fragment, human, UniProt O43633 9-161, looked up)
chain: KTPEELLRQNQRALNRAMRELDRERQKLETQEKKIIADIKKMAKQGQMDAVRIMAKDLVRTRRYVRKFVLMRANIQAVSLKIQTLKSNNSMAQAMKGVTKAMGTMNRQLKLPQIQKIMMEFERQAEIMDMKEEMMNDAIDDAMGDEEDEEESD
modifications: biotin on lysines (biotin sulfo-LC-NHS, molar ratio 1:5) where it was immobilised; not biotinylated as analyte
With B3, the Kd in assay [4] is 3.2 µM. In other words, the single-digit micromolar range.

B4: CHMP2AΔC (residues 9-161), MBP removed (domain or fragment, human, UniProt O43633 9-161, looked up)
chain: KTPEELLRQNQRALNRAMRELDRERQKLETQEKKIIADIKKMAKQGQMDAVRIMAKDLVRTRRYVRKFVLMRANIQAVSLKIQTLKSNNSMAQAMKGVTKAMGTMNRQLKLPQIQKIMMEFERQAEIMDMKEEMMNDAIDDAMGDEEDEEESD
Turning to B4, the binding result in assay [5] is listed as “binds”.
